Data published in paper PMC3887218.

How the values were obtained:
[1] = fluorescence lifetime imaging (TCSPC); in vitro, 4:1 Tau:heparin (Mr 3000), 24 h, 37 °C; K18*: 1 μM, 10% labelled with Alexa Fluor 488, in cell culture medium (3664 ± 25 ps before); hTau40*: 20 μM, 1% labelled, in BES buffer pH 7.4 (3657 ± 18 ps before); a drop of the lifetime reports …; conditions: other: fluorescence lifetime imaging (TCSPC)
[2] = fluorescence lifetime imaging (TCSPC); in vitro, pH 4.7, no heparin, 24 h; K18*: 1 μM, 10% labelled, cell culture medium (3824 ± 22 ps soluble); hTau40*: 10 μM, 1% labelled, BES buffer (3765 ± 53 ps soluble); conditions: other: fluorescence lifetime imaging (TCSPC)
[3] = biological target: K18* (four-repeat construct K18 of human Tau with Cys-291 and Cys-322 replaced by alanine and Ile-260 replaced by cysteine) (human); experiment: SDS-PAGE and Western blot of sequential detergent extracts; SH-SY5Y cells incubated 8 h with 1 μM K18*, trypsin-washed, lysed; Triton and sarkosyl fractions; NuPAGE 4-12% BisTris gel, anti-human Tau antibody A0024

Row | Substance | fluorescence lifetime of the Alexa Fluor 488 label, aggregated with heparin [1] [ps when aggregated] | fluorescence lifetime of the Alexa Fluor 488 label, aggregated at pH 4.7 [2] [ps] | stoichiometry N [3]
1 | K18* (four-repeat construct K18 of human Tau with Cys-291 and Cys-322 replaced by alanine and Ile-260 replaced by cysteine) | 3262 ± 71 | 3268 ± 31 | 
2 | K18* (four-repeat construct K18 of human Tau with Cys-291 and Cys-322 replaced by alanine and Ile-260 replaced by cysteine) (domain or fragment) |  |  | 2
